Results published in PMC6547619, “Development of an anti‐BAG3 humanized antibody for treatment of pancreatic cancer” (Molecular Oncology, 2019).

Assays:
Conditions in all cases: both partners purified
E. coli rBAG3 (Abcam) [1] = molecular target: T1, E. coli rBAG3 (Abcam) (Homo sapiens (assumed; species of …, UniProt O95817); assay: SPR; Biacore 2000, 25 °C; AC-2 captured on an anti-mouse Fc antibody covalently coupled on a CM5 chip; rBAG3 flowed at 0.39 to 200 nM; 2-state reaction model
T1 construct: BAG3 (BCL2-associated athanogene 3), recombinant, made in E. coli, bought from Abcam; Antigen of the SPR experiments only; no catalogue number is printed; also called antigen; source: bought: Abcam (E. coli rBAG3)
T1 sequence (O95817 whole entry): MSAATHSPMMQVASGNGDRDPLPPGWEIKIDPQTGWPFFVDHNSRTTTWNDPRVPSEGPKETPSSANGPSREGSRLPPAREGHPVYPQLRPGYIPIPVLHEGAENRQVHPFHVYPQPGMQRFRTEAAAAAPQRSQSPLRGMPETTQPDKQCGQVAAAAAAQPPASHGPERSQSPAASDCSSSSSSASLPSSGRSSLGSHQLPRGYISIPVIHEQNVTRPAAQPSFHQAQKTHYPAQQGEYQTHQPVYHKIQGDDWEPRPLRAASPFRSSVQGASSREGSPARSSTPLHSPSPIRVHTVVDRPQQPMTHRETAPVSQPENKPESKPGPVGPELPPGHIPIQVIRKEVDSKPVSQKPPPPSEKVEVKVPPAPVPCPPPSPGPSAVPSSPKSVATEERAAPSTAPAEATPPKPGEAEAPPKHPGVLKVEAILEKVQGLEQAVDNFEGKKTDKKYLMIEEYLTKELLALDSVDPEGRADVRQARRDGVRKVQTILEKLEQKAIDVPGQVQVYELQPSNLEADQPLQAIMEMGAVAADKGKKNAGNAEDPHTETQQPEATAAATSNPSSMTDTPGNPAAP

murine rBAG3 = molecular target: T2, murine rBAG3 (Mus musculus, UniProt Q9JLV1); assay: immunoprecipitation; BAG3-H2L4 used to immunoprecipitate murine rBAG3; immunoblot with a rabbit polyclonal anti-BAG3
T2 construct: the cleavage released the full-length polypeptide; also called murine form of BAG3; not shown: biotinylated tag (AviTag, from the vector pAViTag-N N-His SUMO), N-terminal, cleaved; His, N-terminal, cleaved; SUMO, N-terminal, cleaved
T2 sequence (Q9JLV1 whole entry): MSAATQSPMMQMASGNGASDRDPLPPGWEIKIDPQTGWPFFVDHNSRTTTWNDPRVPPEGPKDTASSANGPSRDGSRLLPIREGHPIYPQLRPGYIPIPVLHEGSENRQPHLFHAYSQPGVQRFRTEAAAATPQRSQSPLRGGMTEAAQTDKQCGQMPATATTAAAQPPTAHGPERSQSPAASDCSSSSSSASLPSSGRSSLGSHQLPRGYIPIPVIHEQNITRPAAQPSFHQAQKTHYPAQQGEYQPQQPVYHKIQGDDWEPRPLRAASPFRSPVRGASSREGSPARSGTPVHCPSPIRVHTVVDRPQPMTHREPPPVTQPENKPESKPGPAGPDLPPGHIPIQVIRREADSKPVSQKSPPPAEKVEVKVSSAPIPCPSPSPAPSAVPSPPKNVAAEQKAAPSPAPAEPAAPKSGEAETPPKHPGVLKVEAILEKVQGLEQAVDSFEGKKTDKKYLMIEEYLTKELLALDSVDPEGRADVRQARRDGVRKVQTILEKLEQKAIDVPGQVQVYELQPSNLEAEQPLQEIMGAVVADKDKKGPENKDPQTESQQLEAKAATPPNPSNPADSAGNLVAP

E. coli rBAG3 (Abcam) [2] = molecular target: T1, E. coli rBAG3 (Abcam); assay: SPR; Biacore 2000, 25 °C; humanized variants captured on an anti-human Fc antibody covalently coupled on a CM5 chip; rBAG3 flowed at variable concentrations
[3] = molecular target: T3, human recombinant BAG3 protein (Homo sapiens, UniProt O95817); assay: ELISA; direct ELISA; plates coated with human recombinant BAG3 (1 μg/mL in PBS); humanized antibodies in scalar dilutions, 500 to 15.6 ng/mL; HRP anti-human IgG, O.D. 450 nm
T3 construct: the cleavage released the full-length polypeptide; The ELISA methods say only 'human recombinant BAG3 protein'; For the flow cytometry it was labelled with FITC (FluoroTag FITC conjugation kit); also called rBAG3; full-length BAG3; not shown: biotinylated tag (AviTag, from the vector pAViTag-N N-His SUMO), N-terminal, cleaved; His, N-terminal, cleaved; SUMO, N-terminal, cleaved
T3 sequence (O95817 whole entry): as the sequence (O95817 whole entry) above

Binder	Kd (E. coli rBAG3 (Abcam) [1])	binding result (murine rBAG3)	binding result (E. coli rBAG3 (Abcam) [2])	binding result [3]
murine anti-BAG3 antibody AC-2 (antibody, V domains shown, murine heavy chain; murine light chain; also called mAb AC-2; anti-BAG3 clone AC-2; source: mouse hybridoma clone AC-2 (supernatant in the peptide ELISA)) VH: EVQLQQSGAELVKPGASVKLSCTASGFNIKDTYMYWVKQRPEQGLEWIGGVDPANGNTRYDPKFQGKATLTADTSSSTAYLQLSSLTSEDTAVYYCGRDGAMDYWGQGTSVTVSS VL: DIVMSQSPSSLAVSVGEKVTMSCKSSQSLLYSSNQKNYLAWHQQKPGQSPKLLIYWASTRESGVPDRFTGSGSGTDFTLTISSVKAEDLAIYYCQQYYTYPLTFGAGTKLELK	14.4 nM			
BAG3-H2L4 (antibody, V domains shown, humanized heavy chain variant H2: CDRs of AC-2 (humanized light chain variant L4: CDRs of AC-2 (IgG1, kappa)); also called humanized anti-BAG3 antibody; humanized BAG3-H2L4 antibody; source: CHO, transiently transfected, purified from supernatant (Protein A FPLC), Evitria AG) VH: QVQLVQSGAEVKKPGASVKVSCKASGFNIKDTYMYWVRQAPGQGLEWMGGVDPANGNTRYDPKFQGRVTLTRDTSTSTVYMELSSLRSEDTAVYYCGRDGAMDYWGQGTLVTVSS VL: DIVMTQSPDSLAVSLGERATMSCKSSQSLLYSSNQKNYLAWHQQKPGQPPKLLIYWASTRESGVPDRFSGSGSGTDFTLTISSLQAEDLAIYYCQQYYTYPLTFGAGTKLEIK		binds	binds	binds
BAG3-H4L2 (antibody, V domains shown, humanized heavy chain variant H4: CDRs of AC-2 (humanized light chain variant L2: CDRs of AC-2 (IgG1, kappa)); source: CHO, transiently transfected, purified from supernatant (Protein A FPLC), Evitria AG) VH: EVQLVQSGAEVKKPGATVKISCKVSGFNIKDTYMYWVQQAPGKGLEWMGGVDPANGNTRYDPKFQGRVTITADTSTDTAYMELSSLRSEDTAVYYCARDGAMDYWGQGTLVTVSS VL: not shown			binds	binds
